In IntAct's records for PubMed 14685270:

B1: Eukaryotic translation initiation factor 4E1 (Drosophila melanogaster (Fruit fly)), P48598 (parent)
chain: MQSDFHRMKNFANPKSMFKTSAPSTEQGRPEPPTSAAAPAEAKDVKPKEDPQETGEPAGNTATTTAPAGDDAVRTEHLYKHPLMNVWTLWYLENDRSKSWEDMQNEITSFDTVEDFWSLYNHIKPPSEIKLGSDYSLFKKNIRPMWEDAANKQGGRWVITLNKSSKTDLDNLWLDVLLCLIGEAFDHSDQICGAVINIRGKSNKISIWTADGNNEEAALEIGHKLRDALRLGRNNSLQYQLHKDTMVKQGSNVKSIYTL
partner: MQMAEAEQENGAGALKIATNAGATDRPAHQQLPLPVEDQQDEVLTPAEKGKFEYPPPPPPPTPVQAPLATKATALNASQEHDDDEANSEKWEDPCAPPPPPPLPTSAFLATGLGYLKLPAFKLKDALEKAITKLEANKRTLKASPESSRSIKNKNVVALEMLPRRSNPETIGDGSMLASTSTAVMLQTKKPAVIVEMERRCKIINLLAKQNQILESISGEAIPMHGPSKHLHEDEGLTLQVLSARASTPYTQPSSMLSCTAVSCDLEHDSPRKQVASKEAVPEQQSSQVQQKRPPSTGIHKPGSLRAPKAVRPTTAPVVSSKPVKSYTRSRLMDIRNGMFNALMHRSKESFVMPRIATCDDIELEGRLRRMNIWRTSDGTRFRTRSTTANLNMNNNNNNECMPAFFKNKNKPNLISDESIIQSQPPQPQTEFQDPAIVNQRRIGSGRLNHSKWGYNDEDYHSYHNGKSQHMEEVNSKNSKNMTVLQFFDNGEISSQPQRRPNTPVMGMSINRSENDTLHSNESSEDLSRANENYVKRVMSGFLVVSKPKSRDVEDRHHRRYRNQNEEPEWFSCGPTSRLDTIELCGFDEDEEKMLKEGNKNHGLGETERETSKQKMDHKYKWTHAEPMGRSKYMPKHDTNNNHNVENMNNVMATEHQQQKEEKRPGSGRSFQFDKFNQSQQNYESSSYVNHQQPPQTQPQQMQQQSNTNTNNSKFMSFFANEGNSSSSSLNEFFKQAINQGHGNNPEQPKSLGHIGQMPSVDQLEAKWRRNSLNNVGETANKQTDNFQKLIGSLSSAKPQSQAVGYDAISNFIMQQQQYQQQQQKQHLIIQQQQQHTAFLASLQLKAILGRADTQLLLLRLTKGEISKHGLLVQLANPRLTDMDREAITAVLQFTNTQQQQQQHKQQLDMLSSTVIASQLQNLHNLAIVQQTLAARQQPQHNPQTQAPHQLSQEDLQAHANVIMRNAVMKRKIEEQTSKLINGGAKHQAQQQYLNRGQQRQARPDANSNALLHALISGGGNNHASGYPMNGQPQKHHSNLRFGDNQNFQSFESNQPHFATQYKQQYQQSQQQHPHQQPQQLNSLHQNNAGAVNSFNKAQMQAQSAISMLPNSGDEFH
B2: Protein cup (Drosophila melanogaster (Fruit fly)), Q9VMA3 (parent)
chain: B1 partner
partner: B1 chain

Variants of: B1
Settings: with cup_drome cup, Q9VMA3

| effect of a mutation on the interaction | Variant |
| --- | --- |
| disrupting interaction | MQSDFHRMKNFANPKSMFKTSAPSTEQGRPEPPTSAAAPAEAKDVKPKEDPQETGEPAGNTATTTAPAGDDAVRTEHLYKHPLMNVWTLWYLENDRSKSWEDMQNAITSFDTVEDFWSLYNHIKPPSEIKLGSDYSLFKKNIRPMWEDAANKQGGRWVITLNKSSKTDLDNLWLDVLLCLIGEAFDHSDQICGAVINIRGKSNKISIWTADGNNEEAALEIGHKLRDALRLGRNNSLQYQLHKDTMVKQGSNVKSIYTL [E106A] |

Variants of: B2
Settings: with if4e_drome eIF4E1, P48598

| effect of a mutation on the interaction | Variant |
| --- | --- |
| disrupting interaction | L364A;L368A |
| disrupting interaction | Y327A |

Variants of: B2
Settings: with if4e_drome eIF4E1, P48598
Remark: another data set of the same source

| effect of a mutation on the interaction | Variant |
| --- | --- |
| disrupting interaction | Y327A;L364A;L368A |
| decreasing interaction | Y327A |
